# Results published in the DeepSol protein solubility set.
# Assay: soluble on expression in E. coli; label from the status in PepcDB or PDB records
row,Sequence,soluble on expression in E. coli
1,MGSDKIHHHHHHMLDLLNLPGIKPVDMRHESKGLVIVAEPETVEVPLCGGCNTLMHKHGTRKNKFMDTPLYMEPVRLEVQRPRFRCESCGKMSMPELSFLDDKRRATKRLVDVIRQQCLGTTFHALAEQTGVAVNTVKNIAHDLINELSQTVRYETPVIMGIDEVNLAGGYRCVITNLATNNVFDMLEHRTQEHLKPFFKALPDADKVEWVCTDMWRPFKRSFAQYLPNAKLVIDKFHVVKMASEALEVERKNYQAQLSKEDRIYVKKSIRWLTLKRPGNLTPAEQKALEVVKQAIPELAVAYDFKEAFFCIYDELDKQNAQNAFEAWENSLPDQGLVAFKKLAKTVHNHYDDIFAYWDAPFSITNGYTEGLNGLIKMSNRLGRGYGYPIIRAKTLYSKEARKVGSGIRAGHGKVEYGPHIPTLLKQAESGELD,not soluble
2,MKRLLLSAAILSSMALFNVNAQELKTSADMKGSFKKNVVLEVFTAEWCGYCPGGKERIAKAIEMLDDEYKERVFQTFVHYNDGISKKWPRVGQLFIALDQTLGIPGFPTFSVCRMEKKGENLSIGAPIAIKNKIMKGFGDGTAPAEVNLKLTKGATPEDVCTATFTGKVDADLIGKPLMLTAYVLKNNMKPINPQNGAGDGYLHQHTVLMILSTDVKGDALNIAADGSFTIKKEFKLDGFEIKDTDVLAFVHHPMSNAENHSIINAGQESLDKAEPTATEQIVATPSVKAYVQNGKIVVEEEYSKMEVFNATGQLVKNESLVPGVYVVRITANGVMYFLKVLVPMAGDPLEHHHHHH,soluble
3,MGSDKIHHHHHHVERIETHDATPGVVVEALTRGPGAICIRGLFSESQIAEARRVVMAHSEDRAQTVTHFQGQAAEEQRLHLQRRVWNLLAKGGVFSEMSEQPVIVGAMRRFLGDDFIMGSIAANRILPGGPGQEPHIDYPYWDYHMPDTFPLGINTSFALNAQVTIPLDPFTAETGATAFVPHTQHELRYPAEGDRFFERCQRMTAEPGDAIVFFGATWHCAMPNRSTQDRSAVLIQYLPKFVKPMEDLRAMVGEDFVRRASPTMRQLLGLNFPYPQNLDEIAVATNAEGRKNAMR,not soluble
4,RWYQRYLNPDRRHLAIDPYICGTVLTYSSDAPIGDSAPTTSCYMTGMPSNTGFVSTYPVSSGDADLIPVDKARAYSPLATFLEAAKIMKGKKTGLVVTCHFPHATPADCSAHSYSRKKYDWIAAQMVHQNLDVVLGGGTHYLHPELQSVLNSRGYGLFLDDLNGMRTYAGDRMWALFGKREMPYDLDRDTTQIPSLEEMTRLAIEKLNRSEEGFFLMVEGSKVDWAAHANDPVGIATEYLAFDRACAVAFDFARRDGQTAVIIVPDHGNSGVSIGKQSVKDYDKRSAKDLFDQLCRFRLTADGLAGRLADTPADKVQGLVSNICGFELDAKELEALYNCPDYNHSPIPKEQRRQTEESLYSGSLSTFIASLYTKHTSIGFTTHGHTAEEVLLAAYHPQDTRPMGMVINYELNDYLCRLFELGSQLPVLTDKIFAPHTEVFQGMSYSIKDGKKEGELPVLEVKKGSHRLLASPFSNTVIFNKKAIDLSSVVVYVDKTKTFYLPRELRSLFGE,not soluble
5,MGSDKIHHHHHHMKNLQVVEKEFSSLPIIDISALVSGKGNLYSAASQIRQACRESGFFYIIGHGVDENLQQRLEELSRQFFAQDLETKLKIRMALAGIAWRGYFPVGGELTSGKPDLKEGIYFGTELPDEHPLVQAGTPMHGANLFPANMPQFGETVLEYIEAMTKLGHTLMTGIAMSLGLEESYFADRYTSDPLVLFRIFNYPPNLSPSDGNPIWGVGEHTDYGVLTILKQDDSGGLQVKSKSGWVAAPPVPGSFVCNIGDMLDKMTGGFYRSTPHRVQNQSQNHRLSFPFFFDPNFDVEVKPIELDNYSSE,not soluble
6,GSGMKETAAAKFGERQHMDSPDLGTDDDDKAMACSAGPSGFFTRLGRLIKEKAKSDVEKVFSGFSKTRENLAVIDELLLFWNLAETDRVLDELEEALLVSDFGPKITVRIVERLREDIMSGKLKSGSEIKDALKESVLEMLAKKNSKTELQLGFRKPAVIMIVGVNGGGKTTSLGKLAHRLKNEGTKVLMAAGDTFRAAASDQLEIWAERTGCEIVVAEGDKAKAATVLSKAVKRGKEEGYDVVLCDTSGRLHTNYSLMEELIACKKAVGKIVSGAPNEILLVLDGNTGLNMLPQAREFNEVVGITGLILTKLDGSARGGCVVSVVEELGIPVKFIGVGEAVEDLQPFDPEAFVNAIFS,soluble
7,MGQMADRLAALVVTAFSPDGQIEGSYGAAAGANIRFNGNSYRHYTERGLGHQLSRMAVLVWIAHQRGHDATVAEVTGQPVSRRQETWDARRRRFREEQAETESEGMSTGGLVYFRNTGMRDWHIVIRDGTLSKLDEPEFVKEFLSGYAALSLDYRHKMTKLRTKHYGPDIWMKK,not soluble
8,PGSIWAKAIEHANEERKKPGADGRGDAFCYFVGSRAAGKSTLLNRFLYPTRAEVPKPSEGIEYTYARKPAAFDHEKKDLAHIWEVGGSQEFAEEIVNSDQLFLTAKQVTTAVVVIVVDLSDPAGVLPTLLYWVEQVKKKLGSTYEKFEKKGLQLPEQLRQRAKSKLYSANEDKDTVYHSGISLVIAATKYDAFKNQDPEVKKVMSRVLRYIAHAHGAFLCYLSGLHGASEGSGAEDAALLDNFTRLMNHLIFTGLEKKPVLKMQPQIDHTGPIMVPAGFDTFKSVGRPRSQGEGTVAGGLAEWRELFEKMFPGVREKEAKMSAKGAKFVIPEQYKEEEVDAVRQRKVTDLENFRKEQAAAVEAAKKKALMAKAQQAEAAAKK,not soluble
9,MGSDKIHHHHHHMAFCNNANLLNVFVRHIANNQLRSLAEVATVAHQLKLLKDDFFASDQQAVAVADRYPQDVFAEHTHDFCELVIVWRGNGLHVLNDRPYRITRGDLFYIHADDKHSYASVNDLVLQNIIYCPERLKLNLDWQGAIPGFNASAGQPHWRLGSMGMAQARQVIGQLEHESSQHVPFANEMAELLFGQLVMLLNRHRYTSDSLPPTSSETLLDKLITRLAASLKSPFALDKFCDEASCSERVLRQQFRQQTGMTINQYLRQVRVCHAQYLLQHSRLLISDISTECGFEDSNYFSVVFTRETGMTPSQWRHLNSQKD,not soluble
10,MNQRKLDHEVKTLQVQAAQFAKQTGQWIGMVENFNQALKEIGDVENWARSIELDMRTIATALEYVYKGQLQSAPS,soluble
11,MDGAGAEEVLAPLRLAVRQQGDLVRKLKEDKAPQVDVDKAVAELKARKRVLEAKELALQPKDDIVDRAKMEDTLKRRFFYDQAFAIYGGVSGLYDFGPVGCALKNNIIQTWRQHFIQEEQILEIDCTMLTPEPVLKTSGHVDKFADFMVKDVKNGECFRADHLLKAHLQKLMSDKKCSVEKKSEMESVLAQLDNYGQQELADLFVNYNVKSPITGNDLSPPVSFNLMFKTFIGPGGNMPGYLRPETAQGIFLNFKRLLEFNQGKLPFAAAQIGNSFRNEISPRSGLIRVREFTMAEIEHFVDPSEKDHPKFQNVADLHLYLYSAKAQVSGQSARKMRLGDAVEQGVINNTVLGYFIGRIYLYLTKVGISPDKLRFRQHMENEMAHYACDCWDAESKTSYGWIEIVGCADRSCYDLSCHARATKVPLVAEKPLKEPKTVNVVQFEPSKGAIGKAYKKDAKLVMEYLAICDECYITEMEMLLNEKGEFTIETEGKTFQLTKDMINVKRFQKTLYVEEVVPNVIEPSFGLGRIMYTVFEHTFHVREGDEQRTFFSFPAVVAPFKCSVLPLSQNQEFMPFVKELSEALTRHGVSHKVDDSSGSIGRRYARTDEIGVAFGVTIDFDTVNKTPHTATLRDRDSMRQIRAEISELPSIVQDLANGNITWADVEARYPLFEGQETGKKETIEELEHHHHHH,soluble
12,MGSDKIHHHHHHMVNNMTDLTAQDAAWSTRDHLDDPVIGELRNRFGPDAFTVQATRTGIPVVWVKREQLLEVGDFLKKLPKPYVMLFDLHGMDERLRTHRDGLPAADFSVFYHLISIERNRDIMLKVALSENDLRVPTFTKLFPNANWYERETWEMFGIDIEGHPHLTRIMMPQTWEGHPLRKDYPARATEFDPFELTKAKQDLEMEALTFKPEDWGMKRGTDNEDFMFLNLGPNHPSAHGAFRIILQLDGEEIVDCVPDIGYHHRGAEKMGERQSWHSYIPYTDRIEYLGGCVNEMPYVLAVEKLAGITVPDRVNVIRVMLSELFRINSHLLYISTFIQDVGAMTPVFFAFTDRQKIYDLVEAITGFRMHPAWFRIGGVAHDLPRGWDRLLREFLEWMPKRLDSYEKAALRNTILKGRSQGVAAYGAKEALEWGTTGAGLRATGIDFDVRKWRPYSGYENFDFEVPVGGGVSDCYTRVMLKVEELRQSLRILQQCLDNMPEGPFKADHPLTTPPPKERTLQHIETLITHFLQVSWGPVMPAQESFQMVEATKGINSYYLTSDGSTMSYRTRVRTPSFAHLQQIPSAIRGSLVSDLIVYLGSIDFVMSDVDR,not soluble
13,MAHHHHHHMRRTLALYKQGRSREPNVGRLLYGKRKNLVHHASEAKPSVTAVLAQTPTERLPVAVKHALQVKELHREQIATLLKQHRALRRFDRTEVIVQALRDAKQPLTSQHYCVLMAHANDERQTRRALQFWKDAVSEGKVNERLHGALMSTYRNAGNWRAAMRHCERMWRDQQVLDPLAAHAVMNACRRYGPWQMGLKVFSDAVQHGTKPNGVVYLELLRLIAQSKMPARWMYGLAILRALEASVEVTAGHYNAVLATMGGRNWEKGIELFHSMQVHNVQPSTETLNTVQQLHPHSVSHCIRCVAEAHALGMPITDTMYRNVLLNLFRMQLNNEATQFAEREYKLDCVDAGNPLTHTLSLSVAMVDALLSHPRPHDALLVYESFQDKIGDVVAAATRQLGTSGSLEQRWLVQGRVAVVDHNVLLSTTFESLIHHYDSVFVPFASVRLLVRRARENGHSVQGLHMKTTLRRIGLLLKREEWRMLRVLPYAHQLLAHTYLSEGGPASPEALKALREEAETQSLLPESPQTPTAVAKAVSAYGQALLRRLTPVGEAAEVAGAVRADQSGERGTEDAAKNLVIREAAGGAADTGASSLVSSKAWPAATAPFPMVLHSPRRITSVERVTAVAAMLKSLNPDAEVHVLSTNASQLAAVRHWNAVRVGVLLVPVHYPDQLRQMAPPALPISEGAVAAAMAAPGFRGPKPRL,not soluble
14,MEKVNPKIQRLMSTDKQHFLTKHEFHTKETAERKDLLKFFIETRLKTDGGFLTNYLPDAERKDVATGHELLSESSGLYLRNLAFDTQGRFDNFYKQTKDTFYDGVQFSYRIDEQGNKYNVNASIDDLRIIRSLIEAGGHFKTDQYDQEIKKLGKSFMKTSMKDNILIDFYDSKSKQQSSETSLFYIDLITLGYLYKEFGISADYLQYHYQLIDDGYISDDLPLYQTKFNHQTNKYENNGTLNIIESLLTIVHLSEVGMAKQTSIDFVRKQVQQGTLFNSYDLNGSPVDKNQSAASYAIAALIGVAENDKELYRAAITVLNNFQIMDSSSPIYGGFGDKVTKQVYSYNNLMALLAYDF,not soluble
15,MAPITVGDVVPDGTISFFDENDQLQTVSVHSIAAADGFLDFDLRIGVFGFSEVSMSHVPGFIGKAEELKSKGIDEIICFSVNDPFVMKAWGKTYQENKHVKFVADGSGEYTHLLGLELDLKDKGLGIRSRRFALLLDNLKVTVANVENGGEFTVSSAEDILKALLEHHHHHH,not soluble
16,MGSDKIHHHHHHMSASLNYKSFSKEQQTMDNLEKQLICPICLEMFTKPVVILPCQHNLCRKCASDIFQASNPYLPTRGGTTMASGGRFRCPSCRHEVVLDRHGVYGLQRNLLVENIIDIYKQESTRPEKKSDQPMCEEHEEERINIYCLNCEVPTCSLCKVFGAHKDCQVAPLTHVFQRQKSELSDGIAILVGSNDRVQGVISQLEDTCKTIEECCRKQKQELCEKFDYLYGILEERKNEMTQVITRTQEEKLEHVRALIKKYSDHLENVSKLVESGIQFMDEPEMAVFLQNAKTLLKKISEASKAFQMEKIEHGYENMNHFTVNLNREEKIIREIDFYR,not soluble
17,MGTGGITSNAHVVSPTWHHKHVPPMDDDSVLQRDIGELLSRWGGLQMAVKNQWGGHDSLKKSQELAHNLFHLISQSNGSIFFLLL,not soluble
18,MDWRHKAVCRDEDPELFFPVGNSGPALAQIADAKLVCNRCPVTTECLSWALNTGQDSGVWGGMSEDERRALKRRNARTKARTGV,not soluble
